Reference: the MegaScale stability set (Tsuboyama et al. 2023)

B1: r16_88_TrROS_Hall (parent)
chain: EVIELKIKFKTPEQREKLKEIAKKLNAEVVEEKDGEVIIRFKTPEQAERALKEAEKLGAEVEL

Variants of: B1
Test: folding stability dG (cDNA display proteolysis); higher = more stable
Details: PBS, room temperature

Variant | folding stability dG [kcal/mol]
EVIELKIKFKTPEQREKLKEIAKKLNAEVVEEKDGEVIIRFKTPEQAERALKEAEKLGAWVEL [E60W] | 4.01
EVIELKIKFKTPEQREKLYEIAKKLNAEVVEEKDGEVIIRFKTPEQAERALKEAEKLGAEVEL [K19Y] | 4.89
EVIELKIKFKTPEQREKLKEFAKKLNAEVVEEKDGEVIIRFKTPEQAERALKEAEKLGAEVEL [I21F] | 4.76
EVIELKIKFKTPEQREKLKENAKKLNAEVVEEKDGEVIIRFKTPEQAERALKEAEKLGAEVEL [I21N] | 4.13
EVIELKIKFKTPEQREKLKEIAKKLAAEVVEEKDGEVIIRFKTPEQAERALKEAEKLGAEVEL [N26A] | 4.41
EVIELKIKFKTPEQREKLKEIAKKLNAEVVEEKDGEVIIRFKTPEQAERALKEAVKLGAEVEL [E55V] | 4.51
EVIELKIKFKTPEQREKLKEIAKKLNAEVVEEKDGEVIIRFKTPEQAERALKEAEYLGAEVEL [K56Y] | 4.41
EVIELKIKFKTPEQREKLKEIAKKLNAEVVEEKDGEVIIRFKTPEQAERALKEAESLGAEVEL [K56S] | 4.51
EVIELKIKFKTPEQREKLKEIAKKLNAEVVEEKDGEVIIRFKTPEQAERALKEAEKLSAEVEL [G58S] | 4.43
EVIELKIKFKTPEQREKLKEIAKKLNAEVVEEKDGEVIIRFKTPEQAERALKEAEKLRAEVEL [G58R] | 4.27
EVIELKIKFKTPEQREKLKEIAKKLNAEVVEEKDGEVIIRFKTPEPAERALKEAEKLGAEVEL [Q46P] | 4.44
EVIELKIKFKTPEQREKWKEIAKKLNAEVVEEKDGEVIIRFKTPEQAERALKEAEKLGAEVEL [L18W] | 4.54
EVIELKIKFKTPEQREKKKEIAKKLNAEVVEEKDGEVIIRFKTPEQAERALKEAEKLGAEVEL [L18K] | 1.68
EVIELKIKFKTPEQREKLKEIAKKLNAEVVEEKDGEVEIRFKTPEQAERALKEAEKLGAEVEL [I38E] | 3.67
EVICLKIKFKTPEQREKLKEIAKKLNAEVVEEKDGEVIIRFKTPEQAERALKEAEKLGAEVEL [E4C] | 4.76
EVIELKMKFKTPEQREKLKEIAKKLNAEVVEEKDGEVIIRFKTPEQAERALKEAEKLGAEVEL [I7M] | 4.39
EVIELKIKFKTPEQREKLKEIAKKLNAEVVEEKPGEVIIRFKTPEQAERALKEAEKLGAEVEL [D34P] | 4.26
EVIELKIKFKTPEQREKLKEIAKKLNAEVVFEKDGEVIIRFKTPEQAERALKEAEKLGAEVEL [E31F] | 4.61
EVIELKIKFKTPEQREKLKEIAKKLNAEPVEEKDGEVIIRFKTPEQAERALKEAEKLGAEVEL [V29P] | 4.1
EVIELKIKFKTPEQREKLKEIAKKLNAEVVEEKDGEVIIRFKTPEQAMRALKEAEKLGAEVEL [E48M] | 4.46
EVIELKIKFKTPEQREKLKEIAKKLNAEVVEEKDGEVIIRFKTPTQAERALKEAEKLGAEVEL [E45T] | 4.61
EVIELKIKFKTPEQREKLKEIAKKLNAEVVEEKDGEVIIRFKTPSQAERALKEAEKLGAEVEL [E45S] | 4.29

Variant | folding stability dG [kcal/mol]
EVIELKIKFKTPEQDEKLKEIAKKLNAEVVEEKDGEVIIRFKTPEQAERALKEAEKLGAEVEL [R15D] | 4.11
EVIELKIKFKTPEQQEKLKEIAKKLNAEVVEEKDGEVIIRFKTPEQAERALKEAEKLGAEVEL [R15Q] | 4.22
EVIELKIKFKNPEQREKLKEIAKKLNAEVVEEKDGEVIIRFKTPEQAERALKEAEKLGAEVEL [T11N] | 4.26
EVIELKIKFKDPEQREKLKEIAKKLNAEVVEEKDGEVIIRFKTPEQAERALKEAEKLGAEVEL [T11D] | 4.03
EVIELKIKFKTPEQREKLKEIAKKLNAEVVEEKDGEVIIRFKTPEQAEFALKEAEKLGAEVEL [R49F] | 4.76
EVIELKIKFKTPEQREKLKEIAKKLNAEVVEEKDGEVIIRFKTPEQAEAALKEAEKLGAEVEL [R49A] | 4.37
EVIELKIKFKTPEQREKLKPIAKKLNAEVVEEKDGEVIIRFKTPEQAERALKEAEKLGAEVEL [E20P] | 3.68
EVIELKIKFKTPEQREKLKEIAKKLNAEVCEEKDGEVIIRFKTPEQAERALKEAEKLGAEVEL [V30C] | 4.38
EVIEHKIKFKTPEQREKLKEIAKKLNAEVVEEKDGEVIIRFKTPEQAERALKEAEKLGAEVEL [L5H] | 4.34
EVIELKIKFKTPEQREKLKEIAKKLNAEVVEEKDGEVIIRFLTPEQAERALKEAEKLGAEVEL [K42L] | 4.13
EVIELKIKFKTPEQREDLKEIAKKLNAEVVEEKDGEVIIRFKTPEQAERALKEAEKLGAEVEL [K17D] | 4.49
EVIELKIKFKTPEQREKLKEIPKKLNAEVVEEKDGEVIIRFKTPEQAERALKEAEKLGAEVEL [A22P] | 3.7
EVIELKITFKTPEQREKLKEIAKKLNAEVVEEKDGEVIIRFKTPEQAERALKEAEKLGAEVEL [K8T] | 4.33
EVIELKIKFKTPEQREKLKEIAKKLNAEVVEEKDGEVIIRFKTPEQAERALKEAEKLGNEVEL [A59N] | 4.3
EVIELKIKFKTPEQREKLKEIAKKLNAEVVEEKDGEVIIRFKTPEQAERGLKEAEKLGAEVEL [A50G] | 4.46
EVIELKIKFKTPEQREKLKEIAKKLNAEVVEEKDGEVIIRFKEPEQAERALKEAEKLGAEVEL [T43E] | 3.61
EVIELKIKFKTPEQREKLKEIAKKLNAEVVEEKDGEVIIRFKTPEQAERALKEAEKLGAEYEL [V61Y] | 3.79
EVIELKIKFKTPEQREKLKEIAKKLNAEVVEEKDGEVIIRFKTPEQAERALKEAEKLGAEVEE [L63E] | 4.22
EVIELKIKFKTPEQREKLKEIAKKLNAEVVEEKDGELIIRFKTPEQAERALKEAEKLGAEVEL [V37L] | 4.39
EVIELKIKFKTPEQREKLKEIAKKLNAEVVEEKDGEPIIRFKTPEQAERALKEAEKLGAEVEL [V37P] | 2.49
EVIELKIKFKTPEQREKLKEIAKKLNAIVVEEKDGEVIIRFKTPEQAERALKEAEKLGAEVEL [E28I] | 4.45
